Experiments:
alpha-1 integrin subunit = alpha-1 integrin subunit (human, UniProt P56199); experiment: co-immunoprecipitation from surface-labelled beta-8-transfected 293 cells with monoclonal antibody TS2/7
Protocol: (§1) For the immunoprecipitation, four hundred microliters of the labelled cell extract was incubated with 1/100 volume of antibody (ascites, culture supernatant or antiserum) at 4° C. overnight, and immunoprecipitations were carried out using Protein G Sepharose™ 4FF (Pharmacia) after first preclearing with SEPHAROSE™ CL-4B (Pharmacia). Protein G SEPHAROSE™ beads were washed three times with 0.05% Tween 20, 20mM Tris pH 8, 120 mM NaCl, 2 mM CaCl_2. Proteins precipitated from the labelled cell extracts were solubilized by heating in sample buffer and analyzed by separation on a 7.5% SDS-polyacrylamide gel followed by autoradiography.
(§2) These cells endogenously express various alpha integrin subunits, including alpha-v. The beta-8 integrin transfected cell proteins were prepared for immunoprecipitation as described in Example 4.
(§3) Monoclonal antibodies against several different alpha integrin subunits were used in the immunoprecipitations in order to identify with which alpha subunit the beta-8 integrin formed a complex. […]

alpha-3 integrin subunit = molecular target: T1, alpha-3 integrin subunit (human, UniProt P26006); experiment: co-immunoprecipitation from surface-labelled beta-8-transfected 293 cells with monoclonal antibody P1B5
T1 sequence 1: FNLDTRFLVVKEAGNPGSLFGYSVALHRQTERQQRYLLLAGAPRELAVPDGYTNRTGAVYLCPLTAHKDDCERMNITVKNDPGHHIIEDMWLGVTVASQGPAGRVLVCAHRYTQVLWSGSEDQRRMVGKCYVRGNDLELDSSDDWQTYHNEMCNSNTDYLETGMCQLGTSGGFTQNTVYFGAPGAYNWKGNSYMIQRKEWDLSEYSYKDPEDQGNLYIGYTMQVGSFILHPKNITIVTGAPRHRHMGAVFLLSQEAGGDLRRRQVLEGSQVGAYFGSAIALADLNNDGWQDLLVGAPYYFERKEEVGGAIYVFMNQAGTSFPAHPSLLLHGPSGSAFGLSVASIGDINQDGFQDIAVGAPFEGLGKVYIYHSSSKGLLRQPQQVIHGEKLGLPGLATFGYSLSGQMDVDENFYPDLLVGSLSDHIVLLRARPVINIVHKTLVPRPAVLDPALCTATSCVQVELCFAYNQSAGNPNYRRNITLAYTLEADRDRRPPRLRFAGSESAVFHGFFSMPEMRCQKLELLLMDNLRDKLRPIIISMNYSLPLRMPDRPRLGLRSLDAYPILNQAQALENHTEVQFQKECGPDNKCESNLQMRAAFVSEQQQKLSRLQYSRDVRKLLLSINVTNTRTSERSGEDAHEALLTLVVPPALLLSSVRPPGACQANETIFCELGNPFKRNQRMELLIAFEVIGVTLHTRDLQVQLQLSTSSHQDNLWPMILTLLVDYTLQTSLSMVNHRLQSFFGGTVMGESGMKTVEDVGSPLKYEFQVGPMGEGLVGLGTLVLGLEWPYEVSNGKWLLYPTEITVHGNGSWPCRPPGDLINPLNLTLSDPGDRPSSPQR
T1 sequence 2: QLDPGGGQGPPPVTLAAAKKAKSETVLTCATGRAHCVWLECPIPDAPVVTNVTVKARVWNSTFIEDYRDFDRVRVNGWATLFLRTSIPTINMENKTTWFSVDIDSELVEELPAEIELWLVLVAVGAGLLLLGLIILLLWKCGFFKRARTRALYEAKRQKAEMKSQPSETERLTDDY
Protocol: as §1, §2, §3

alpha-5 integrin subunit = alpha-5 integrin subunit (human, UniProt P08648); experiment: co-immunoprecipitation from surface-labelled beta-8-transfected 293 cells with monoclonal antibody P1D6
Protocol: as §1, §2, §3

alpha-6 integrin subunit = molecular target: T2, alpha-6 integrin subunit (human, UniProt P23229); experiment: co-immunoprecipitation from surface-labelled beta-8-transfected 293 cells with monoclonal antibody GoH3
T2 sequence 1: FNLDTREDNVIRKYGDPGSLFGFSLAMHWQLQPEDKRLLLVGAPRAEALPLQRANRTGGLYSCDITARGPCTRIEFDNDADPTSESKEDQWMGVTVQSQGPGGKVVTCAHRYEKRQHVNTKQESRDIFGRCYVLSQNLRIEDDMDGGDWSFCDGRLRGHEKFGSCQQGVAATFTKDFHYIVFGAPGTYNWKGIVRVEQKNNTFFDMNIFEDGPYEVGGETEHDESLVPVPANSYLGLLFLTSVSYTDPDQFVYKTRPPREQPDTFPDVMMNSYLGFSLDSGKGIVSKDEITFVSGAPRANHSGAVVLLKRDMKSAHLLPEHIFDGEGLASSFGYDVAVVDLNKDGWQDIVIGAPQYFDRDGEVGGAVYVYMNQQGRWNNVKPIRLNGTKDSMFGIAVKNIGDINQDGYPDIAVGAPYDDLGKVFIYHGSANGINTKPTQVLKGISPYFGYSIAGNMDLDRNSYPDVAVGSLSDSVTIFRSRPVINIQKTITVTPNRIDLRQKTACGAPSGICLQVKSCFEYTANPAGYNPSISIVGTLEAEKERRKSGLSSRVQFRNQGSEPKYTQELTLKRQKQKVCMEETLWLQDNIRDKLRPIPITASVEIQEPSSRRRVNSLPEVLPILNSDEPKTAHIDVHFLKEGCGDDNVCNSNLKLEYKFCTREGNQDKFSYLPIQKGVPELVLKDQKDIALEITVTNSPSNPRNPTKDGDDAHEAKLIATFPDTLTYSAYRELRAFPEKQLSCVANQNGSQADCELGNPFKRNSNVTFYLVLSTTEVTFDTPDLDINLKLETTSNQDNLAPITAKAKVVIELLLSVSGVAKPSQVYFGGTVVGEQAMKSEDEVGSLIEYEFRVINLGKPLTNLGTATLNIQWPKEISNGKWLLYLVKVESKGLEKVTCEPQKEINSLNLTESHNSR
T2 sequence 2: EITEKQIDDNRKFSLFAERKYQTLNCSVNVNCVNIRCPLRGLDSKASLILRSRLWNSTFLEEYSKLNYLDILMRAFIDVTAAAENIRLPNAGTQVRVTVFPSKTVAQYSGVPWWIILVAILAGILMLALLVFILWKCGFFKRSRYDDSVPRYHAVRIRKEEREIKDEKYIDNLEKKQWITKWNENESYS
Protocol: as §1, §2, §3

alpha-2 integrin subunit = alpha-2 integrin subunit (human, UniProt P17301); experiment: co-immunoprecipitation from surface-labelled beta-8-transfected 293 cells with monoclonal antibody P1H5
Protocol: as §1, §2, §3

Measured: binding result

B1: human beta-8 integrin subunit (receptor)
chain: EDNRCASSNAASCARCLALGPECGWCVQEDFISGGSRSERCDIVSNLISKGCSVDSIEYPSVHVIIPTENEINTQVTPGEVSIQLRPGAEANFMLKVHPLKKYPVDLYYLVDVSASMHNNIEKLNSVGNDLSRKMAFFSRDFRLGFGSYVDKTVSPYISIHPERIHNQCSDYNLDCMPPHGYIHVLSLTENITEFEKAVHRQKISGNIDTPEGGFDAMLQAAVCESHIGWRKEAKRLLLVMTDQTSHLALDSKLAGIVVPNDGNCHLKNNVYVKSTTMEHPSLGQLSEKLIDNNINVIFAVQGKQFHWYKDLLPLLPGTIAGEIESKAANLNNLVVEAYQKLISEVKVQVENQVQGIYFNITAICPDGSRKPGMEGCRNVTSNDEVLFNVTVTMKKCDVTGGKNYAIIKPIGFNETAKIHIHRNCSCQCEDNRGPKGKCVDETFLDSKCFQCDENKCHFDEDQFSSESCKSHKDQPVCSGRGVCVCGKCSCHKIKLGKVYGKYCEKDDFSCPYHHGNLCAGHGECEAGRCQCFSGWEGDRCQCPSAAAQHCVNSKGQVCSGRGTCVCGRCECTDPRSIGRFCEHCPTCYTACKENWNCMQCLHPHNLSQAILDQCKTSCALMEQQHYVDQTSECFSSPSYLRIFFIIFIVTFLIGLLKVLIIRQVILQWNSNKIKSSSDYRVSASKKDKLILQSVCTRAVTYRREKPEEIKMDISKLNAHETFRCNF
modifications: surface labelled with 125I (lactoperoxidase)
no binding: alpha-1 integrin subunit | alpha-3 integrin subunit | alpha-5 integrin subunit | alpha-6 integrin subunit | alpha-2 integrin subunit
